We go through 25 molecules from patent US20080032921A1.

In assay [1] the target is HLA-DR DRB1*0101 (human). The experiment in a line: competition with 125I-labelled reference peptide on purified HLA-DR.
In assay [2] the target is HLA-DR DRB4*0101 (human). The assay is described as above.
Assay [3] addresses HLA-DR DRB1*1302 (human). The assay is described as above.
Assay [4] addresses HLA-DR DRB1*0401 (human). The assay is described as above.
Assay [5] addresses HLA-DR DRB1*1501 (human). Described as above.
The target of assay [6] is HLA-DR DRB1*0101 (human). Put plainly: competition with 125I-labeled reference peptide, purified HLA.
The target in assay [7] is HLA-DR DRB1*0301 (human). The description is as above.
In assay [8] the target is HLA-DR DRB1*0405 (human). The description is as above.
Assay [9] has as its target HLA-DR DRB1*1302 (human). The assay is described as above.
In assay [10] the target is HLA-DR DRB1*0401 (human). The assay is described as above.
Assay [11] addresses HLA-DR DRB1*0404 (human). The description is as above.
Assay [12] addresses purified HLA-DR molecule DRB1*0101 (human). The experiment in a line: competition with 125I-labelled peptide for purified HLA.
For assay [13], the target named is purified HLA-DR molecule DRB1*0301 (human). The assay is described as above.
Assay [14] deals with purified HLA-DR molecule DRB1*1302 (human). The assay is described as above.
Assay [15] has as its target purified HLA-DR molecule DRB1*0401 (human). The description is as above.
Assay [16] has as its target purified HLA-DR molecule DRB1*0404 (human). The description is as above.
The target in assay [17] is purified HLA-DR molecule DRB1*0405 (human). The assay is described as above.
The target of assay [18] is HLA-DR DRB1*0101 (human). The experiment in a line: competition vs 125I-labeled peptide, purified HLA.
The target of assay [19] is HLA-DR DRB4*0101 (human). Put plainly: competition vs 125I-labeled peptide, purified HLA.
Assay [20] addresses HLA-DR DRB1*1302 (human). Put plainly: competition vs 125I-labeled peptide, purified HLA.
The target in assay [21] is HLA-DR DRB1*0401 (human). The experiment in a line: competition vs 125I-labeled peptide, purified HLA.
The target of assay [22] is HLA-DR DRB1*1501 (human). The experiment in a line: competition vs 125I-labeled peptide, purified HLA.

Where only a bound is given, the exact number is not on record here.

B1: Flu.NA.183 peptide … (peptide)
peptide: VAVLKYNGIITDTIKSW
modifications: not checked
What is called IC50 is the concentration at which inhibition is half-maximal. Read a high IC50 as weaker potency. Turning to B1, the half-inhibitory concentration (IC50) in assay [1] was found to be 3390 nM; in assay [2], 289 nM; in [3], 169 nM; in [4], 319 nM; in [5], 19 nM.

B2: Flu.NS2.178 (peptide)
peptide: ALQLLFEVEQEIRTF
modifications: not checked
For B2, the IC50 in [6] was 3490 nM; in assay [7] it was 403 nM; in assay [8], 8870 nM; in [9], more than 10000 nM; in assay [10], 10300 nM; in assay [11], 2150 nM.

B3: … (Flu.PB2.135) (peptide)
peptide: PVHFRNQVKIRRRVD
modifications: not checked
As to B3, the concentration for half-maximal inhibition (IC50) in assay [12] was 2970 nM; in assay [13], 458 nM; in assay [14] it was 359 nM; in [15] it was 1300 nM; in [16] it was 5980 nM; in [17], 6040 nM.

B4: Flu.NS2.180 (peptide)
peptide: QLLLEVEQEIRTFSF
modifications: not checked
Regarding B4, the IC50 in assay [6] is 11900 nM; in assay [7], 792 nM; in [8], 5140 nM; in assay [9], 13200 nM; in assay [10] it was 13900 nM; in assay [11], 1600 nM.

B5: Flu.HA.532 (peptide)
peptide: ILSIYSTVASSLALAI
modifications: not checked
Consider B5, for which the concentration for half-maximal inhibition (IC50) in assay [18] stood at 11 nM; in assay [19] it was 824 nM; in [20], 7.6 nM; in assay [21], 91 nM; in assay [22], 20 nM.

B6: … (Flu.PB1.682) (peptide)
peptide: QRGILEDEQMYQKCC
modifications: not checked
Turning to B6, the concentration for half-maximal inhibition (IC50) in assay [12] stood at 433 nM; in assay [13], 34 nM; in [14] it was 10900 nM; in [15], 2560 nM; in assay [16], 3270 nM; in assay [17], 700 nM.

B7: Flu.M1.43 (peptide)
peptide: EALMEWLKTRPILSP
modifications: not checked
B7: the IC50 was determined as 9.5 nM in assay [18]; 5510 nM in [19]; 380 nM in [20]; 891 nM in assay [21]; 18 nM in assay [22].

B8: Flu.M1.51 (peptide)
peptide: TRPILSPLTKGILGF
modifications: not checked
Regarding B8, the concentration for half-maximal inhibition (IC50) in assay [18] stood at 423 nM; in [19], 192 nM; in assay [20], 292 nM; in assay [22], 140 nM.

B9: Flu.PA.446 (peptide)
peptide: RNYFTAEVSHCRATE
modifications: not checked
For the molecule B9, the IC50 in assay [6] was 627 nM; in assay [7], 883 nM; in assay [8], 5720 nM; in assay [9], more than 10000 nM; in assay [10], 45 nM; in [11], 7600 nM.

B10: Flu.M1.46 (peptide)
peptide: MEWLKTRPILSPLTK
modifications: not checked
With B10, the IC50 in [18] is 52 nM; in [19] it was 7940 nM; in [20], 3880 nM; in assay [21], 528 nM; in assay [22] it was 111 nM.

B11: … (Flu.PB2.250) (peptide)
peptide: GGEVRNDDVDQSLII
modifications: not checked
For B11, the IC50 in assay [13] came out at 347 nM; in assay [14] it was 2500 nM; in [15], 2160 nM; in assay [16], 458 nM.

B12: Flu.HA.529 (peptide)
peptide: IYQILSIYSTVASSLA
modifications: not checked
Take B12: the 50% inhibitory concentration (IC50) in assay [18] was determined as 55 nM; in [19] it was 18 nM; in [20], 13 nM; in [21], 89 nM; in assay [22] it was 4.7 nM.

B13: LRNLMS1SRTREILT (Flu.PB2.10) (peptide)
peptide: LRNLMSQSRTREILT
modifications: not checked
Turning to B13, the half-maximal inhibitory concentration (IC50) in assay [12] worked out at 613 nM; in assay [13], 978 nM; in assay [14] it was 5.4 nM; in assay [15], 4970 nM; in [16] it was 170 nM; in assay [17], 9690 nM.

B14: Flu.NA.110 peptide … (peptide)
peptide: RTFFLTQGALLNDKHS
modifications: not checked
As to B14, the IC50 in assay [1] stood at 16 nM; in assay [2] it was 2320 nM; in [3], 3200 nM; in assay [4], 251 nM; in assay [5] it was 790 nM.

B15: Flu.PA.393 (peptide)
peptide: LKQYDSDEPELRSLS
modifications: not checked
With B15, the IC50 in [6] is 17700 nM; in assay [7], 88 nM; in assay [8] it was more than 10000 nM; in assay [9] it was more than 10000 nM; in assay [10], 7260 nM; in assay [11], 5800 nM.

B16: Flu.HA.210 (peptide)
peptide: PTTYISVGTSTLNQRL
modifications: not checked
For B16, the IC50 in [18] turned out to be 190 nM; in assay [19] it was 522 nM; in [20] it was 957 nM; in [21], 59 nM; in assay [22] it was 1720 nM.

B17: … (Flu.PB2.57) (peptide)
peptide: KYPITADKRIMEMIP
modifications: not checked
For the molecule B17, the 50% inhibitory concentration (IC50) turned out to be 48 nM in assay [13], 68 nM in [14], 9390 nM in assay [15] and 2290 nM in assay [16].

B18: Flu.NA.289 peptide … (peptide)
peptide: NLEYQIGYICSGVFG
modifications: not checked
Take B18: the IC50 in [1] was 1130 nM; in assay [2], 354 nM; in [3], 41 nM; in [4], 975 nM; in [5], 13 nM.

B19: Flu.HA.163 (peptide)
peptide: VVWLIKKNSTYPTIKR
modifications: not checked
In the case of B19, the concentration for half-maximal inhibition (IC50) was 464 nM in assay [18]; 1660 nM in assay [19]; 14 nM in [20]; 289 nM in assay [21]; 99 nM in assay [22].

B20: Flu.PA.12 (peptide)
peptide: FNPMIVELAEKTMKE
modifications: not checked
Consider B20, for which the half-maximal inhibitory concentration (IC50) in assay [6] was 48 nM; in assay [7] it was 744 nM; in assay [8] it was 1240 nM; in [9], 1250 nM; in assay [10], 29 nM; in [11], 610 nM.

B21: Flu.NA.26 peptide … (peptide)
peptide: IGNMISIWVSHSIHTG
modifications: not checked
B21: the IC50 in assay [1] is 1050 nM; in [2], 817 nM; in [3], 5950 nM; in assay [4] it was 925 nM; in assay [5], 81 nM.

B22: … (Flu.PB1.683) (peptide)
peptide: RGILEDEQMYQKCCN
modifications: not checked
In the case of B22, the IC50 in assay [12] came out at 199 nM; in assay [13] it was 43 nM; in assay [14] it was 18000 nM; in assay [15] it was 5740 nM; in assay [16], 10500 nM; in assay [17] it was 3280 nM.

B23: Flu.PA.423 (peptide)
peptide: SIWIELDEIGEDVAP
modifications: not checked
As for B23, the IC50 in assay [6] was 13400 nM; in assay [7], 59 nM; in assay [8] it was more than 10000 nM; in [9], more than 10000 nM; in assay [10], 5400 nM.

B24: Flu.NA.126 peptide … (peptide)
peptide: NGTVKDRSPHRTLMS
modifications: not checked
With B24, the IC50 in assay [1] came to 581 nM; in assay [2] it was 8880 nM; in assay [3], 7930 nM; in assay [4], 17900 nM; in [5] it was 267 nM.

B25: … (Flu.PB2.205) (peptide)
peptide: MVAYMLERELVRKTR
modifications: not checked
With B25, the concentration for half-maximal inhibition (IC50) came to 97 nM in assay [12]; 878 nM in assay [13]; 2080 nM in assay [14]; 166 nM in [15]; 499 nM in [16]; 5540 nM in [17].
